T1: dog CD40 on blood cells (dog, UniProt Q7YRL5 21-274)
T1 construct: whole, on cells; also called dog blood
T1 sequence (looked up): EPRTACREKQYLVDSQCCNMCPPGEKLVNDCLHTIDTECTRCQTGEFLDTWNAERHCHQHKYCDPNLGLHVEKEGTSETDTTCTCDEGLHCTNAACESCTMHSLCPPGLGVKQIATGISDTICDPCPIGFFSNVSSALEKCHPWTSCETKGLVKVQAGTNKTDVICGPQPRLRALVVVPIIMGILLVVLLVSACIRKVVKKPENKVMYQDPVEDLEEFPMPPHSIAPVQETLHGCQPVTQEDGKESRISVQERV

T2: rat CD40 on blood cells (rat, UniProt A6JXD6 20-289)
T2 construct: also called rat blood
T2 sequence: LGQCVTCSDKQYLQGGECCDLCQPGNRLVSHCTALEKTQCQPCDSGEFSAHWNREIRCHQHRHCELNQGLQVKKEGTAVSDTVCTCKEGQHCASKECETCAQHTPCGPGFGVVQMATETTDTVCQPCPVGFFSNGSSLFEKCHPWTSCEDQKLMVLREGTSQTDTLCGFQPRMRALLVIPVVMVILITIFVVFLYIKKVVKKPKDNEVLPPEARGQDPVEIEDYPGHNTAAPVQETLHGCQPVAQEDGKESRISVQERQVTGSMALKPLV


Tests used:
[1] = target: RANK/Ig; assay: ELISA, RANK/Ig coated, antibody 1 µg/ml
Sequence of RANK/Ig (Q9Y6Q6 whole entry): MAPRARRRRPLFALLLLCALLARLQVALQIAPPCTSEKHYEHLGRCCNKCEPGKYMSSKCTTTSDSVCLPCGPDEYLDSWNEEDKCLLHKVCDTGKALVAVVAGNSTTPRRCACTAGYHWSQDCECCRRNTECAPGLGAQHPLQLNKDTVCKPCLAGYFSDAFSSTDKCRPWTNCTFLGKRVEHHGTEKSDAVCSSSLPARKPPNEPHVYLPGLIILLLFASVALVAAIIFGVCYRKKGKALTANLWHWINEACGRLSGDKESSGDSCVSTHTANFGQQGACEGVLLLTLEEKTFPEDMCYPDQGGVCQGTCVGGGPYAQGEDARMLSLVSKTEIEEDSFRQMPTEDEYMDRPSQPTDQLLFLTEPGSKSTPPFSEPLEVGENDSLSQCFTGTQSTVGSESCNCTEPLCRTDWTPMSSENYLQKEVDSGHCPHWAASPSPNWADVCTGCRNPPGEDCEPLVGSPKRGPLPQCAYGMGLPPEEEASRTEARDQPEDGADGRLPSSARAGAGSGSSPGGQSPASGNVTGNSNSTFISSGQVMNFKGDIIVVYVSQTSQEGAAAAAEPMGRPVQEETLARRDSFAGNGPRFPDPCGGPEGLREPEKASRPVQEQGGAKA
Method: (§1) We then washed the plate with PBST (PBS+0.1% Tween-20) three times and blocked the plate with PBST+0.5% BSA at 150 µl/well. We incubated the plate at room temperature for 1 hour and then washed with PBST three times. […] We incubated the plate at room temperature for 1 hour then washed with PBST three times. […] We incubated the plate at room temperature for 1 hour and then washed with PBST three times. […] We then read the plate using a SpectraMax™ plate reader.

[2] = target: T3, human CD40 on cells (human, UniProt P25942 21-277); assay: FACS on CD19/CD20+ B cells in whole blood
T3 construct: whole, on cells; also called human B cells; monocyte derived dendritic cells
T3 sequence (P25942 21-277): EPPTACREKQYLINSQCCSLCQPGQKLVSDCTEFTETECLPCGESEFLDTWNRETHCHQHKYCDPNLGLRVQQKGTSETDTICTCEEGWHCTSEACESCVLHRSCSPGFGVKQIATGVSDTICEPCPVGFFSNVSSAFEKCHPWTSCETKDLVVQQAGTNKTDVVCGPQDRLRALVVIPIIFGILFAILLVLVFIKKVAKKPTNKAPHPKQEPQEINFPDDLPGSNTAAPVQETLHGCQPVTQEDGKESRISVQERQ
Method: We incubated aliquots of human and monkey whole blood for 1 hour on ice with increasing concentrations of anti-CD40 antibodies of the invention exemplified herein or with an anti-keyhole limpet hemocyanin (KLH) antibody as a negative control. We then incubated the samples for 30 minutes on ice with anti-human IgG2-conjugated RPE (phycoerythrin). We measured binding by flow cytometry of CD19/CD20 positive B cells and analyzed the histograms of fluorescence intensity (F12-H) versus cell number (Counts) using CellQuest software. We estimated binding (K_D) for each antibody from graphs of mean fluorescence intensity versus antibody concentration. We controlled for depletion of the antibody by measuring binding over a range of cell concentrations.

[3] = target: T4, mouse CD40 on blood cells (mouse, UniProt P27512 20-289); assay: FACS, whole blood
T4 construct: whole, on cells; also called mouse blood
T4 sequence (P27512 20-289): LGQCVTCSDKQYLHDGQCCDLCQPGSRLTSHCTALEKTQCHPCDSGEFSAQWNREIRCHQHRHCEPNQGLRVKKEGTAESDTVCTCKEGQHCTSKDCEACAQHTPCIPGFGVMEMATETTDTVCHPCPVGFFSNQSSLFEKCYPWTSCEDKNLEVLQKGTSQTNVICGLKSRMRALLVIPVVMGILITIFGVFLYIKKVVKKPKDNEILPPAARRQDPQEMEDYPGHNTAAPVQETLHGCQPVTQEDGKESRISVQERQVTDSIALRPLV

[4] = target: T1, dog CD40 on blood cells; assay: FACS, whole blood
[5] = target: T2, rat CD40 on blood cells; assay: FACS, whole blood
[6] = target: T5, 4-1BB/Ig; assay: ELISA, 4-1BB/Ig coated, antibody 1 µg/ml
T5 construct: also called CD137
Method: as §1

[7] = target: T6, TNFR-2/Ig; assay: ELISA, TNFR-2/Ig coated, antibody 1 µg/ml
T6 construct: also called Tumor Necrosis Factor Receptor-2
Method: as §1

[8] = target: T7, human CD40-IgG1 Fc fusion protein (human, UniProt P25942 21-193); assay: ELISA, CD40/Ig coated, antibody 1 µg/ml
T7 construct: extracellular domain; also called CD40-Ig fusion protein; CD40-IgG fusion protein; not shown: human IgG1 Fc
T7 sequence (P25942 21-193): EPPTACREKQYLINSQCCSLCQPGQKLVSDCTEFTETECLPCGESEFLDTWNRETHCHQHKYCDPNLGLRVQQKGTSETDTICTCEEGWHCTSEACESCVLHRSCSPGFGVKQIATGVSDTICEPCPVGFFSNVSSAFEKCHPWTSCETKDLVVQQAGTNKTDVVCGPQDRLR

[9] = target: T8, TNFR-1/Ig; assay: ELISA, TNFR-1/Ig coated, antibody 1 µg/ml
T8 construct: also called Tumor Necrosis Factor Receptor-1
T8 sequence (P19438 whole entry): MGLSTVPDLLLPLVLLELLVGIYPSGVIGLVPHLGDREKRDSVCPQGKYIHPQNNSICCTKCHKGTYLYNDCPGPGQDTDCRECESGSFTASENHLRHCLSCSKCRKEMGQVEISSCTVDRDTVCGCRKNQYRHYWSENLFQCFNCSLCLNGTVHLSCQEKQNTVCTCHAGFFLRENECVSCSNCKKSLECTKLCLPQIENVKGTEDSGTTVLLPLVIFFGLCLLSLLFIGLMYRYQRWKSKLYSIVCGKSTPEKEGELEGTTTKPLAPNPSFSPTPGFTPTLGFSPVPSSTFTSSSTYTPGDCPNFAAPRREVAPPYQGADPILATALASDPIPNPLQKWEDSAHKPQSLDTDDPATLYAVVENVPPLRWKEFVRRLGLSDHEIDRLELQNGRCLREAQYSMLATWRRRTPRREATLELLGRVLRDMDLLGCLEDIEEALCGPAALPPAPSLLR
Method: as §1

[10] = target: T3, human CD40 on cells; assay: cell-based or functional assay
[11] = target: T9, human/mouse chimeric CD40 HuD1, D3 (human; mouse, UniProt P25942 21-64; P27512 65-94; P25942 95-147, limits assumed); assay: ELISA on chimeric CD40
T9 construct: domain: D1;domain: D2;domain: D3
T9 sequence (P25942 other isoform, or with tags, fused parts or gaps mutant limits assumed): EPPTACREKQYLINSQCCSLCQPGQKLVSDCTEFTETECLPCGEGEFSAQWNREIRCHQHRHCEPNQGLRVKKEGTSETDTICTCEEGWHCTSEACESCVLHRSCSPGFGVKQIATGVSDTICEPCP

[12] = target: T10, human/mouse chimeric CD40 HuD1 (human; mouse, UniProt P25942 21-64; P27512 65-147, limits assumed); assay: ELISA on chimeric CD40
T10 construct: domain: D1;domain: D2-D3
T10 sequence (P25942 other isoform, or with tags, fused parts or gaps mutant limits assumed): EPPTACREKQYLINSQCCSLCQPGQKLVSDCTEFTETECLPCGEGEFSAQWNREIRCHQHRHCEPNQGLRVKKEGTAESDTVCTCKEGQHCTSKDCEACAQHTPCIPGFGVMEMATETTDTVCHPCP

[13] = target: T11, human/mouse chimeric CD40 HuD3 (mouse; human, UniProt P27512 20-94; P25942 95-147, limits assumed); assay: ELISA on chimeric CD40
T11 construct: domain: D1-D2;domain: D3
T11 sequence (P27512 other isoform, or with tags, fused parts or gaps mutant limits assumed): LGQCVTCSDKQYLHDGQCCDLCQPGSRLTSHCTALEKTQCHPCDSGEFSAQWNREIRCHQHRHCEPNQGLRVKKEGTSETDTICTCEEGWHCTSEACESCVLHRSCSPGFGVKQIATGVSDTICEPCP

[14] = target: T7, human CD40-IgG1 Fc fusion protein; assay: SPR BIAcore 3000, CD40-Ig immobilised, antibody injected
Method: The carboxymethylated dextran surface of a flow cell on a sensor chip was activated by derivatization with 0.05 M N-hydroxysuccinimide mediated by 0.2 M N-ethyl-N'-(dimethylaminopropyl) carbodiimide for 7 min. […] Deactivation of unreacted N-hydroxysuccinimide esters was performed using 1 M ethanolamine hydrochloride, pH 8.5. Following immobilization, the flow cells are cleaned of any unreacted or poorly bound material with 5 regeneration injections of 5 µl of 50 mM NaOH until a stable baseline is achieved. Flow cell 2, a high density surface, measured approximately 300 RU's following surface preparation and flow cell 3, a low density surface, measured approximately 150 RU's. For flow cell 1, the activated blank surface, 35 µl of 10 mM Na acetate buffer was injected during immobilization in place of antigen. Flow cell 4 contained approximately 450 RU's of immobilized CTLA4-Ig, an irrelevant antigen control.
A dilution series of each antibody was prepared in the concentration range of 100 µg/ml to 0.1 µg/ml by half logs. The flow rate was set at 5 µl/min and 25 µl of each concentration point sample was injected over the sensor chip with a regeneration injection of 5 µl of 50 mM NaOH between each concentration of antibody injected. The data was analyzed using BIAevaluation 3.0 software.

[15] = target: T3, human CD40 on cells; assay: cell-based or functional assay; remark: listed apart in the source
[16] = target: T12, Mouse CD40(D1-D3)-6Xhis (mouse, UniProt P27512 20-147, limits assumed); assay: ELISA, 293F supernatant
T12 construct: domain: D1-D3; also called Mouse CD40(D1-D3)-6xHis fusion protein
T12 sequence (P27512 other isoform, or with tags, fused parts or gaps limits assumed): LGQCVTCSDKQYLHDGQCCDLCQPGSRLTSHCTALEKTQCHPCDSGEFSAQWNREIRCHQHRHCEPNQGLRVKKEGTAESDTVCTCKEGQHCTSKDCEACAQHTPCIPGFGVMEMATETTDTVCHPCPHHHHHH
From the text: Binding of anti-CD40 human antibodies were detected with HRP conjugated goat anti-human IgG (FC specific Caltag H10507), diluted 1:2,000.

[17] = target: T3, human CD40 on cells; assay: cell-based or functional assay; remark: listed apart in the source
[18] = target: T3, human CD40 on cells; assay: cell-based or functional assay; remark: listed apart in the source
[19] = target: T3, human CD40 on cells; assay: cell-based or functional assay; remark: listed apart in the source
[20] = target: T3, human CD40 on cells; assay: cell-based or functional assay; remark: listed apart in the source
[21] = target: T13, human/mouse chimeric CD40 HuD2, D3 (mouse; human, UniProt P27512 20-64; P25942 65-147, limits assumed); assay: ELISA on chimeric CD40
T13 construct: domain: D1;domain: D2-D3
T13 sequence (P27512 other isoform, or with tags, fused parts or gaps mutant limits assumed): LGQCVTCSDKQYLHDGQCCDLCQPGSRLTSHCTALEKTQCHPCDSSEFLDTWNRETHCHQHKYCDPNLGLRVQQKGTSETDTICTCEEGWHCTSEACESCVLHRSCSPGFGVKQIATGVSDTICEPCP

[22] = target: T14, human/mouse chimeric CD40 HuD2 (mouse; human, UniProt P27512 20-64; P25942 65-94; P27512 95-147, limits assumed); assay: ELISA on chimeric CD40
T14 construct: domain: D1;domain: D2;domain: D3
T14 sequence (P27512 other isoform, or with tags, fused parts or gaps mutant limits assumed): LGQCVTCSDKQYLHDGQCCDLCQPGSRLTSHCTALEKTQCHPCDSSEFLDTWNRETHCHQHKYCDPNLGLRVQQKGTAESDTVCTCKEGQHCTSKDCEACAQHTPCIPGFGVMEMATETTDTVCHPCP

Row | CD40 specific signal over the signal for this molecule [1] | binding result [3] | binding result [4] | binding result [5] | CD40 specific signal over the signal for this molecule [6] | CD40 specific signal over the signal for this molecule [7] | CD40 specific signal over the signal for this molecule [9] | B cell B7-1 (CD80), fold increase in median intensity at 1 µg/ml [10] | B cell B7-2 (CD86), fold increase in median intensity at 1 µg/ml [10] | B cell CD23, fold increase in median intensity at 1 µg/ml [10] | B cell ICAM (CD54), fold increase in median intensity at 1 µg/ml [10] | B cell MHC Class II, fold increase in median intensity at 1 µg/ml [10] | Kd [14] | koff [14] | kon [14] | Allo DC/T IFNγ secretion, EC50 [15] | DC IL-12p70 secretion with LPS, EC50 [17] | DC B7-1 (CD80), fold increase in median intensity at 1 µg/ml, 72 h [18] | DC B7-2 (CD86), fold increase in median intensity at 1 µg/ml, 72 h [18] | DC CD83, fold increase in median intensity at 1 µg/ml, 72 h [18] | Binder | further results
1 | ≥ 100 fold | no binding | no binding | no binding | ≥ 100 fold | ≥ 100 fold | ≥ 100 fold | – | – | – | – | – | – | – | – | – | – | – | – | – | monoclonal antibody 7.1.2 (antibody, human IgG2, kappa, V domains shown, Human IgG2 kappa from hybridoma; also called hybridoma 7.1.2 (LN 15849), ATCC PTA-3601) VH: QVQLVESGGGVVQPGRSLRLSCAASGFTFSSYGMHWVRQAPGKGLEWVAVISNDGDNKYHADSVWGRFTISRDNSRSTLYLQMNSLRAEDTAVYYCARRGMGSSGSRGDYYYYYGLDVWGQGTTVTVSS VL: not shown | binding result [2]: binds; binding result [8]: binds
2 | ≥ 100 fold | no binding | no binding | no binding | ≥ 100 fold | ≥ 100 fold | ≥ 100 fold | 1.3 fold | 0.9 fold | 1.1 fold | 1 fold | 1.2 fold | 0.0704 nM | 3.9e-05 s⁻¹ | 354000 M⁻¹ s⁻¹ | 0.3 µg/mL | 0.1 µg/mL | 0.9 fold | 8.4 fold | 10.6 fold | monoclonal antibody 23.29.1 (antibody, human IgG2, kappa, V domains shown, Human IgG2 kappa from hybridoma; also called mAb 23.29.1; hybridoma 23.29.1 (LN 15878), ATCC PTA-4553) VH: QVQLVESGGGVVQPGRSLRLSCAASGFTFSSYAMHWVRQAPGKGLEWVAVISYDGSNKYYADSVKGRFTIYRDNSKNTLYLQMNSLRAEDTAVYYCARRGHYGNNYYSYYGLDVWGQGTTVTVSS VL: DIVMTQSPLSLPVTPGEPASISCRSSQSLLPGNGYNYLDWYLQKPGQSPQLLIYLGSNRASGVPDRFSGSGSGTDFTLKISRVEAEDVGIYYCMQALQTPRTFGQGTKVEIKR | binding result [11]: no binding; binding result [12]: no binding; binding result [13]: no binding; binding result [16]: no binding; DC ICAM (CD54), fold increase in median intensity at 1 µg/ml, 72 h [18]: 1.2 fold; DC MHC Class II, fold increase in median intensity at 1 µg/ml, 72 h [18]: 2 fold
3 | ≥ 100 fold | no binding | no binding | no binding | ≥ 100 fold | ≥ 100 fold | ≥ 100 fold | 1.7 fold | 1.2 fold | 5.6 fold | 1.3 fold | 3.2 fold | 0.0395 nM | 3.31e-05 s⁻¹ | 1.12e+06 M⁻¹ s⁻¹ | 0.1 µg/mL | 0.2 µg/mL | 1.8 fold | 23.7 fold | 15.2 fold | monoclonal antibody 3.1.1 (antibody, human IgG2, kappa, V domains shown, also called mAb 3.1.1; hybridoma 3.1.1 (LN 15848), ATCC PTA-3600) VH: QVQLVESGGGVVQPGRSLRLSCAASGFTFSSYGMHWVRQAPGKGLEWVAVISKDGGNKYHADSVKGRFTISRDNSKNALYLQMNSLRVEDTAVYYCVRRGHQLVLGYYYYNGLDVWGQGTTVTVSS VL: DIVLTQSPLSLPVTPGEPASISCRSSQSLLYSNGYNFLDWYLQKPGQSPQLLIYLGSNRASGVPDRFSGSGSGTDFTLKISRLEAEDVGVYYCMQALQTPRTFGQGTKVEIKR | DC ICAM (CD54), fold increase in median intensity at 1 µg/ml, 72 h [18]: 1.5 fold; DC MHC Class II, fold increase in median intensity at 1 µg/ml, 72 h [18]: 4.4 fold
4 | ≥ 100 fold | no binding | no binding | no binding | ≥ 100 fold | ≥ 100 fold | ≥ 100 fold | 1.2 fold | 1 fold | 1.3 fold | 1.1 fold | 1.4 fold | 0.279 nM | 0.000155 s⁻¹ | 955000 M⁻¹ s⁻¹ | 0.3 µg/mL | 0.1 µg/mL | 1.4 fold | 16.3 fold | 12 fold | monoclonal antibody 22.1.1 (antibody, human IgG2, kappa, V domains shown, Human IgG2 kappa from hybridoma; also called hybridoma 22.1.1 (LN 15875), ATCC PTA-4550) VH: QVQLVESGGGVVQPGRSLRLSCAASGFTFSRYGMHWVRQAPGKGLEWVAVISSDGGNKYYADSVKGRFTISRDNSKNTLYLQMNSLRAEDTAVYYCTRRGTGKTYYHYCGMDVWGQGTTVTVSS VL: not shown | DC ICAM (CD54), fold increase in median intensity at 1 µg/ml, 72 h [18]: 1.6 fold; DC MHC Class II, fold increase in median intensity at 1 µg/ml, 72 h [18]: 2.3 fold
5 | ≥ 100 fold | no binding | no binding | no binding | ≥ 100 fold | ≥ 100 fold | ≥ 100 fold | – | – | – | – | – | 0.348 nM | – | – | 0.3 µg/mL | 0.3 µg/mL | – | – | – | monoclonal antibody 21.4.1 (antibody, human IgG2, kappa, V domains shown, Human IgG2 kappa from hybridoma; also called mAb 21.4.1; hybridoma 21.4.1 (LN 15853), ATCC PTA-3605) VH: not shown VL: DIQMTQSPSSVSASVGDRVTITCRASQGIYSWLAWYQQKPGKAPNLLIYTASTLQSGVPSRFSGSGSGTDFTLTISSLQPEDFATYYCQQANIFPLTFGGGTKVEIKR | Dendritic cell B7-2 upregulation, EC50 [19]: 0.0714 µg/mL; Dendritic cell CD83 upregulation, EC50 [19]: 0.233 µg/mL; Dendritic cell ICAM upregulation, EC50 [19]: 0.241 µg/mL; Dendritic cell MHC II upregulation, EC50 [19]: 0.252 µg/mL; B cell B7-2 upregulation, EC50 [20]: 0.016 µg/mL; B cell CD23 upregulation, EC50 [20]: 0.019 µg/mL; B cell CD71 upregulation, EC50 [20]: 0.00073 µg/mL; B cell ICAM upregulation, EC50 [20]: 0.0153 µg/mL; B cell MHC II upregulation, EC50 [20]: 0.00385 µg/mL; binding result [21]: no binding; binding result [11]: no binding; binding result [12]: no binding; binding result [13]: no binding; binding result [22]: no binding; binding result [16]: no binding

Source: patent US7288251 (ABGENIX, dated 2007)
